# Data taken from PMC6019658 (Protein & Cell, 2017).
# B1: YnaI channel (MscS-like mechanosensitive channel of E. coli) (natural protein, UniProt P0AEB5 1-343, looked up)
# chain: MIAELFTNNALNLVIIFGSCAALILMSFWFRRGNRKRKGFLFHAVQFLIYTIIISAVGSIINYVIENYKLKFITPGVIDFICTSLIAVILTIKLFLLINQFEKQQIKKGRDITSARIMSRIIKITIIVVLVLLYGEHFGMSLSGLLTFGGIGGLAVGMAGKDILSNFFSGIMLYFDRPFSIGDWIRSPDRNIEGTVAEIGWRITKITTFDNRPLYVPNSLFSSISVENPGRMTNRRITTTIGLRYEDAAKVGVIVEAVREMLKNHPAIDQRQTLLVYFNQFADSSLNIMVYCFTKTTVWAEWLAAQQDVYLKIIDIVQSHGADFAFPSQTLYMDNITPPEQGR
# Target: the molecule itself
# Test: cryo-EM structure; single-particle cryo-EM of purified YnaI in amphipols; 20 mmol/L Mes pH 6.5, 200 mmol/L NaCl, 5 mmol/L DTT; 0.1 mg/mL on grids; homoheptamer
protein,measurement,value
B1,stoichiometry N,7
